# Tested on: Escherichia coli TOP10
# Experiment: shrunken log2 fold change of peptide-encoding DNA abundance (4.5 h post-induction vs induction); higher = less antimicrobial activity (less host growth inhibition)
# Conditions: time post-induction: 4.5 h; library: site-saturation at positions 5, 18, 19, 20
# 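Note: peptides expressed intracellularly from a pBAD plasmid library in pooled LB shake-flask culture, induced with 0.3% L-arabinose, DNA abundance read by NGS, three biological replicates, DESeq2 with apeglm shrinkage.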
row,Sequence,shrunken log2 fold change
1,RRIRNRPPRLPRPRPRPSARPRP,0.256
2,RRIRARPPRLPRPRPRPGRFPRP,1.11
3,RRIRIRPPRLPRPRPRPPICPRP,-0.132
4,RRIRKRPPRLPRPRPRPCLEPRP,0.0959
5,RRIRQRPPRLPRPRPRPTNRPRP,0.0327
6,RRIRHRPPRLPRPRPRPIINPRP,-0.324
7,RRIRNRPPRLPRPRPRPYHPPRP,-0.135
8,RRIRNRPPRLPRPRPRPHALPRP,0.0517
9,RRIRVRPPRLPRPRPRPINHPRP,-0.464
10,RRIRVRPPRLPRPRPRPGNRPRP,-0.0858
11,RRIRERPPRLPRPRPRPKSTPRP,-0.42
12,RRIRDRPPRLPRPRPRPAELPRP,0.0334
13,RRIRWRPPRLPRPRPRPFMKPRP,-0.128
14,RRIRKRPPRLPRPRPRPMVEPRP,0.0956
15,RRIRKRPPRLPRPRPRPDWGPRP,2.83
16,RRIRERPPRLPRPRPRPMRYPRP,0.000213
17,RRIRLRPPRLPRPRPRPLLWPRP,0.195
18,RRIRGRPPRLPRPRPRPRTMPRP,0.539
19,RRIRPRPPRLPRPRPRPLYTPRP,-0.37
20,RRIRGRPPRLPRPRPRPVVIPRP,-0.253
21,RRIRRRPPRLPRPRPRPCAPPRP,0.275
22,RRIRWRPPRLPRPRPRPNGMPRP,-0.0595
23,RRIRDRPPRLPRPRPRPSQKPRP,-0.0691
24,RRIRKRPPRLPRPRPRPAHYPRP,0.123
25,RRIRIRPPRLPRPRPRPNRAPRP,1.1

row,Sequence,shrunken log2 fold change
1,RRIRKRPPRLPRPRPRPFPWPRP,0.582
2,RRIRCRPPRLPRPRPRPLKMPRP,-0.365
3,RRIRMRPPRLPRPRPRPPASPRP,1.65
4,RRIRWRPPRLPRPRPRPWEQPRP,0.0277
5,RRIRVRPPRLPRPRPRPSLAPRP,-0.0683
6,RRIRFRPPRLPRPRPRPSIDPRP,-0.433
7,RRIRFRPPRLPRPRPRPIGNPRP,-0.501
8,RRIRWRPPRLPRPRPRPNMQPRP,-0.0262
9,RRIRARPPRLPRPRPRPRWGPRP,0.425
10,RRIRARPPRLPRPRPRPLWKPRP,0.121
11,RRIRIRPPRLPRPRPRPFQTPRP,-0.271
12,RRIRWRPPRLPRPRPRPTRYPRP,-0.104
13,RRIRNRPPRLPRPRPRPLSKPRP,-0.176
14,RRIRRRPPRLPRPRPRPSGFPRP,0.0452
15,RRIRLRPPRLPRPRPRPKIEPRP,0.0278
16,RRIRRRPPRLPRPRPRPEKIPRP,0.164
17,RRIRARPPRLPRPRPRPLWCPRP,-0.264
18,RRIRCRPPRLPRPRPRPPAQPRP,1.18
19,RRIRFRPPRLPRPRPRPKYTPRP,-0.657
20,RRIRIRPPRLPRPRPRPRRQPRP,0.0868
21,RRIRARPPRLPRPRPRPTHHPRP,0.468
22,RRIRGRPPRLPRPRPRPLKVPRP,0.271
23,RRIRSRPPRLPRPRPRPSPFPRP,-0.191
24,RRIRERPPRLPRPRPRPVAMPRP,-0.00351
25,RRIRWRPPRLPRPRPRPRGMPRP,0.313

row,Sequence,shrunken log2 fold change
1,RRIRWRPPRLPRPRPRPCYHPRP,-0.123
2,RRIRTRPPRLPRPRPRPPRDPRP,0.4
3,RRIRHRPPRLPRPRPRPYSCPRP,-0.0837
4,RRIRCRPPRLPRPRPRPLEKPRP,-0.072
5,RRIRQRPPRLPRPRPRPTDAPRP,0.0862
6,RRIRERPPRLPRPRPRPDFYPRP,-0.491
7,RRIRNRPPRLPRPRPRPQLLPRP,-0.0811
8,RRIRIRPPRLPRPRPRPFHTPRP,-0.235
9,RRIRWRPPRLPRPRPRPYLSPRP,-0.242
10,RRIRMRPPRLPRPRPRPEKQPRP,2.16
11,RRIRSRPPRLPRPRPRPVPYPRP,-0.248
12,RRIRDRPPRLPRPRPRPCKMPRP,-0.0957
13,RRIRKRPPRLPRPRPRPDIKPRP,0.137
14,RRIRRRPPRLPRPRPRPQLFPRP,2.21
15,RRIRIRPPRLPRPRPRPHDPPRP,-0.296
16,RRIRIRPPRLPRPRPRPCAIPRP,0.137
17,RRIRTRPPRLPRPRPRPRAQPRP,0.461
18,RRIRCRPPRLPRPRPRPVCWPRP,0.401
19,RRIRYRPPRLPRPRPRPKILPRP,-0.247
20,RRIRMRPPRLPRPRPRPSREPRP,0.545
21,RRIRMRPPRLPRPRPRPLGVPRP,0.8
22,RRIRNRPPRLPRPRPRPVSFPRP,0.0749
23,RRIRDRPPRLPRPRPRPGPQPRP,-0.0494
24,RRIRWRPPRLPRPRPRPFCYPRP,-0.418
25,RRIRDRPPRLPRPRPRPLTDPRP,0.0638

row,Sequence,shrunken log2 fold change
1,RRIRKRPPRLPRPRPRPPEKPRP,0.00179
2,RRIRIRPPRLPRPRPRPMTLPRP,0.0505
3,RRIRDRPPRLPRPRPRPIMYPRP,-0.0948
4,RRIRQRPPRLPRPRPRPINEPRP,0.0162
5,RRIRTRPPRLPRPRPRPLEAPRP,0.115
6,RRIRHRPPRLPRPRPRPTYVPRP,-0.143
7,RRIRDRPPRLPRPRPRPKRYPRP,-0.236
8,RRIRLRPPRLPRPRPRPGTQPRP,-0.0907
9,RRIRDRPPRLPRPRPRPQHQPRP,-0.108
10,RRIRWRPPRLPRPRPRPWDEPRP,-0.106
11,RRIRDRPPRLPRPRPRPWCNPRP,-0.378
12,RRIRTRPPRLPRPRPRPFKRPRP,0.122
13,RRIRGRPPRLPRPRPRPSTPPRP,0.468
14,RRIRQRPPRLPRPRPRPGGVPRP,0.463
15,RRIRTRPPRLPRPRPRPYRSPRP,0.0429
16,RRIRTRPPRLPRPRPRPQDTPRP,-0.284
17,RRIRMRPPRLPRPRPRPVMQPRP,-0.221
18,RRIRWRPPRLPRPRPRPLCGPRP,1.71
19,RRIRLRPPRLPRPRPRPHKAPRP,-0.0451
20,RRIRERPPRLPRPRPRPSTDPRP,-0.332
21,RRIRRRPPRLPRPRPRPGSCPRP,0.152
22,RRIRRRPPRLPRPRPRPQSEPRP,0.0256
23,RRIRTRPPRLPRPRPRPMLCPRP,-0.00838
24,RRIRIRPPRLPRPRPRPHHGPRP,-0.0784
25,RRIRGRPPRLPRPRPRPVIIPRP,2.29

row,Sequence,shrunken log2 fold change
1,RRIRTRPPRLPRPRPRPPLIPRP,0.0432
2,RRIRMRPPRLPRPRPRPGKMPRP,0.137
3,RRIRKRPPRLPRPRPRPNAPPRP,0.449
4,RRIRNRPPRLPRPRPRPNHFPRP,-0.0479
5,RRIRWRPPRLPRPRPRPRWAPRP,0.662
6,RRIRCRPPRLPRPRPRPPREPRP,1.1
7,RRIRMRPPRLPRPRPRPCMYPRP,0.051
8,RRIRHRPPRLPRPRPRPWFYPRP,-0.244
9,RRIRMRPPRLPRPRPRPDPSPRP,-0.0334
10,RRIRGRPPRLPRPRPRPMVGPRP,0.108
11,RRIRYRPPRLPRPRPRPSQYPRP,-0.209
12,RRIRPRPPRLPRPRPRPFHEPRP,-0.187
13,RRIRVRPPRLPRPRPRPTCWPRP,0.835
14,RRIRVRPPRLPRPRPRPTYNPRP,-0.769
15,RRIRNRPPRLPRPRPRPVWRPRP,0.636
16,RRIRYRPPRLPRPRPRPDVVPRP,0.0135
17,RRIRQRPPRLPRPRPRPLHRPRP,-0.11
18,RRIRFRPPRLPRPRPRPCIWPRP,0.25
19,RRIRGRPPRLPRPRPRPTKAPRP,1.03
20,RRIRLRPPRLPRPRPRPSNSPRP,-0.564
21,RRIRARPPRLPRPRPRPREGPRP,1.1
22,RRIRCRPPRLPRPRPRPHHYPRP,-0.685
23,RRIRQRPPRLPRPRPRPFRKPRP,-0.101
24,RRIRARPPRLPRPRPRPKGCPRP,1.4
25,RRIRVRPPRLPRPRPRPAICPRP,-0.0408

row,Sequence,shrunken log2 fold change
1,RRIRYRPPRLPRPRPRPDQFPRP,-0.435
2,RRIRARPPRLPRPRPRPLWHPRP,0.108
3,RRIRSRPPRLPRPRPRPSHFPRP,-0.182
4,RRIRRRPPRLPRPRPRPQYVPRP,-0.265
5,RRIRRRPPRLPRPRPRPRLVPRP,0.527
6,RRIRTRPPRLPRPRPRPTHLPRP,-0.0332
7,RRIRLRPPRLPRPRPRPNRGPRP,-0.00212
8,RRIRNRPPRLPRPRPRPQNMPRP,-0.233
9,RRIRTRPPRLPRPRPRPSMNPRP,-0.28
10,RRIRHRPPRLPRPRPRPGMNPRP,0.00489
11,RRIRRRPPRLPRPRPRPMNTPRP,-0.171
12,RRIRTRPPRLPRPRPRPAPGPRP,0.544
13,RRIRHRPPRLPRPRPRPQCFPRP,-0.0477
14,RRIRPRPPRLPRPRPRPVEVPRP,-0.0864
15,RRIRSRPPRLPRPRPRPTFRPRP,-0.0691
16,RRIRNRPPRLPRPRPRPDHTPRP,-0.0123
17,RRIRMRPPRLPRPRPRPCVCPRP,-0.00811
18,RRIRKRPPRLPRPRPRPKPIPRP,0.742
19,RRIRQRPPRLPRPRPRPFVSPRP,-0.216
20,RRIRWRPPRLPRPRPRPIWHPRP,0.126
21,RRIRKRPPRLPRPRPRPNCPPRP,0.0785
22,RRIRMRPPRLPRPRPRPWLTPRP,0.158
23,RRIRPRPPRLPRPRPRPDWNPRP,-0.0666
24,RRIRCRPPRLPRPRPRPIAAPRP,0.549
25,RRIRVRPPRLPRPRPRPPDIPRP,0.248

# Source: the supplement of paper PMC9112550, “Optimization of the antimicrobial peptide Bac7 by deep mutational scanning” (BMC Biology, 2022)
